Test results from PMC9700324, “Selection-free endogenous tagging of cell lines by bicistronic co-expression of the surface antigen NGFR” (MethodsX, 2022).

T1: nLAP-tagged WDR59 (WD Repeat Domain 59), endogenously tagged (human (endogenous in HEK293T), UniProt Q6PJI9 1-974)
T1 construct: WDR59 (WD Repeat Domain 59), subunit of GATOR2, human; NGFRETD is split off at the P2A site and is not part of this chain; The tag was inserted in the 5'UTR (donor NGFR "-2"); they are printed only as DNA; also called WDR59-GFP; nLAP-WDR59; source: endogenously tagged allele in HEK (Lenti-X 293T) spCas9+ cells, WDR59-NGFRETD-nLAP clone D5, in lysate; not shown: EGFP, N-terminal, kept
T1 sequence (looked up): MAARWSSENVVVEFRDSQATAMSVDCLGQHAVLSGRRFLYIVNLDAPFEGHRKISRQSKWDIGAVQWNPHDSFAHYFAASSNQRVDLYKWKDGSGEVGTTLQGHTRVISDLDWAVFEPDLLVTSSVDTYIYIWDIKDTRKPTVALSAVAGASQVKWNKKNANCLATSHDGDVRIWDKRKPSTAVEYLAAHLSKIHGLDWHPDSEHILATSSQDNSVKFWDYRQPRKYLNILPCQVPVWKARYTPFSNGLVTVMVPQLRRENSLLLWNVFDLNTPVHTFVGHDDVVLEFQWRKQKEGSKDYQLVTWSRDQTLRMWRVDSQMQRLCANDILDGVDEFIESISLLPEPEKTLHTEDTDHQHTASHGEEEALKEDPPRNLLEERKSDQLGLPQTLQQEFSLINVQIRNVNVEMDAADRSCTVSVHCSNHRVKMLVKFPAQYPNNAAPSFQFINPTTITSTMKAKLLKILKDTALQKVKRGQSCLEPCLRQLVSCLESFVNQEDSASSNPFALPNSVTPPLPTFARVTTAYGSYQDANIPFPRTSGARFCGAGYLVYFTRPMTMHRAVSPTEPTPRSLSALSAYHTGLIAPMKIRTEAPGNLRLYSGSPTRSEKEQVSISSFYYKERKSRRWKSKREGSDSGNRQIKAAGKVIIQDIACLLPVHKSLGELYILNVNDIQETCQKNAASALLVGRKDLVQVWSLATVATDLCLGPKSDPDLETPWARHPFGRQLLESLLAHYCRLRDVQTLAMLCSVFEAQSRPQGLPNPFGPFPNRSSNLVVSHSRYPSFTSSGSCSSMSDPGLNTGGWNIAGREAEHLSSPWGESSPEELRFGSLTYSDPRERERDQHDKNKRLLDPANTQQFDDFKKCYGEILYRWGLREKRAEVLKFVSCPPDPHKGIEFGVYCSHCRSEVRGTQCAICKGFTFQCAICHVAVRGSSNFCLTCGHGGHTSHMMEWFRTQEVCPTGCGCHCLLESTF

T2: nLAP-tagged WDR59 (WD Repeat Domain 59), endogenously tagged (human (endogenous in HEK293T)), Q6PJI9
T2 chain: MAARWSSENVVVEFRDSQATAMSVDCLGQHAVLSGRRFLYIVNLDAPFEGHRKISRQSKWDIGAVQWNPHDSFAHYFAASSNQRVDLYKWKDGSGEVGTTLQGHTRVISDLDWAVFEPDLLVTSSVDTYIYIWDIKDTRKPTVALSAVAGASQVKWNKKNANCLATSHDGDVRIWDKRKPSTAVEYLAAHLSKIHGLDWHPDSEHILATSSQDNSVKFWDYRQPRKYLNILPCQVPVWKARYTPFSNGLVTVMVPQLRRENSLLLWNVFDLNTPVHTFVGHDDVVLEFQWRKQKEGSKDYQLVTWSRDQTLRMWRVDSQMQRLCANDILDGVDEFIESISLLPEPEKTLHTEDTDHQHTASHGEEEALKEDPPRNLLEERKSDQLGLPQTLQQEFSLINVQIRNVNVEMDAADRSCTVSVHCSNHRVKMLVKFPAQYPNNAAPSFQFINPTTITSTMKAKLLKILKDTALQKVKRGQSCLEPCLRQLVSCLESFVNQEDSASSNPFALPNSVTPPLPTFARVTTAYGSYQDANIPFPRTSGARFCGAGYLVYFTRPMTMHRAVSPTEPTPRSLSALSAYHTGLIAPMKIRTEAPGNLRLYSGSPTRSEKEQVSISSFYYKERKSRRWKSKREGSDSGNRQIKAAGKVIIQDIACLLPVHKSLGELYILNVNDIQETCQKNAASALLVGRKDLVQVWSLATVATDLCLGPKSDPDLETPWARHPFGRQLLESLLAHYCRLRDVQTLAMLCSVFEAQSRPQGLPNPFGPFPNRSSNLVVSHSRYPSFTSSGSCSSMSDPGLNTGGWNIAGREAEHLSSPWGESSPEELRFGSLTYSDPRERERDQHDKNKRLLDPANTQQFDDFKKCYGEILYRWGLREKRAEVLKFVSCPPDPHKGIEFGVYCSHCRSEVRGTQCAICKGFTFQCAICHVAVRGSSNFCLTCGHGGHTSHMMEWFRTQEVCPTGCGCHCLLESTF


Legend:
[1] = biological target: T1, nLAP-tagged WDR59 (WD Repeat Domain …); test: co-IP; nLAP-tagged WDR59 precipitated from 1,000-3,000 µg lysate protein with GFP-Trap magnetic agarose beads (GFP-specific nanobodies) overnight at 4°C; CoIP buffer (10 mM Tris-HCl pH 8, 150 mM NaCl, 5 mM EDTA, 0.5% Triton X-100, 60 mM octyl-β-D-glucopyranoside); 5 washes; partners detected by Western blot; cells untreated, amino acid-starved 16 h with or without 60 min stimulation with all amino acids or leucine, …; conditions: partners not purified
[2] = biological target: T2, nLAP-tagged WDR59 (WD Repeat Domain …); test: as above; conditions: remark: other sources report otherwise

Binder	co-IP signal after leucine restimulation, fold of the leucine-starved sample [1] [fold]	co-IP signal after restimulation with all amino acids, percent of the amino acid-starved sample (normalised to WDR59-GFP) [1] [%]	co-IP signal after leucine restimulation, fold of the leucine-starved sample [2] [fold]	co-IP signal after restimulation with all amino acids, fold of the amino acid-starved sample (normalised to WDR59-GFP) [2] [fold]	co-IP signal after restimulation with leucine alone, fold of the amino acid-starved sample (normalised to WDR59-GFP) [2] [fold]
Sestrin-2 (SESN2) (natural protein, human (endogenous in HEK293T), UniProt P58004 1-480, looked up, Sestrin-2 (SESN2), leucine-sensing protein, human, endogenous; source: endogenous, HEK (Lenti-X 293T) spCas9+ WDR59-NGFRETD-nLAP clone D5 lysate) MIVADSECRAELKDYLRFAPGGVGDSGPGEEQRESRARRGPRGPSAFIPVEEVLREGAESLEQHLGLEALMSSGRVDNLAVVMGLHPDYFTSFWRLHYLLLHTDGPLASSWRHYIAIMAAARHQCSYLVGSHMAEFLQTGGDPEWLLGLHRAPEKLRKLSEINKLLAHRPWLITKEHIQALLKTGEHTWSLAELIQALVLLTHCHSLSSFVFGCGILPEGDADGSPAPQAPTPPSEQSSPPSRDPLNNSGGFESARDVEALMERMQQLQESLLRDEGTSQEEMESRFELEKSESLLVTPSADILEPSPHPDMLCFVEDPTFGYEDFTRRGAQAPPTFRAQDYTWEDHGYSLIQRLYPEGGQLLDEKFQAAYSLTYNTIAMHSGVDTSVLRRAIWNYIHCVFGIRYDDYDYGEVNQLLERNLKVYIKTVACYPEKTTRRMYNLFWRHFRHSEKVHVNLLLLEARMQAALLYALRAITRYMT	~2	82			
NPRL3 (Nitrogen Permease Regulator 3-Like Protein), Q12980 1-569 (natural protein) MRDNTSPISVILVSSGSRGNKLLFRYPFQRSQEHPASQTSKPRSRYAASNTGDHADEQDGDSRFSDVILATILATKSEMCGQKFELKIDNVRFVGHPTLLQHALGQISKTDPSPKREAPTMILFNVVFALRANADPSVINCLHNLSRRIATVLQHEERRCQYLTREAKLILALQDEVSAMADGNEGPQSPFHHILPKCKLARDLKEAYDSLCTSGVVRLHINSWLEVSFCLPHKIHYAASSLIPPEAIERSLKAIRPYHALLLLSDEKSLLGELPIDCSPALVRVIKTTSAVKNLQQLAQDADLALLQVFQLAAHLVYWGKAIIIYPLCENNVYMLSPNASVCLYSPLAEQFSHQFPSHDLPSVLAKFSLPVSLSEFRNPLAPAVQETQLIQMVVWMLQRRLLIQLHTYVCLMASPSEEEPRPREDDVPFTARVGGRSLSTPNALSFGSPTSSDDMTLTSPSMDNSSAELLPSGDSPLNQRMTENLLASLSEHERAAILSVPAAQNPEDLRMFARLLHYFRGRHHLEEIMYNENTRRSQLLMLFDKFRSVLVVTTHEDPVIAVFQALLP			2	1.2	1.89
WDR24 (WD Repeat Domain 24) (natural protein, human (endogenous in HEK293T), UniProt Q96S15 1-790, looked up, WDR24 (WD Repeat Domain 24), subunit of GATOR2, human, endogenous; also called GATOR2 subunit WDR24; source: endogenous, HEK (Lenti-X 293T) spCas9+ WDR59-NGFRETD-nLAP clone D5 lysate) MEKMSRVTTALGGSVLTGRTMHCHLDAPANAISVCRDAAQVVVAGRSIFKIYAIEEEQFVEKLNLRVGRKPSLNLSCADVVWHQMDENLLATAATNGVVVTWNLGRPSRNKQDQLFTEHKRTVNKVCFHPTEAHVLLSGSQDGFMKCFDLRRKDSVSTFSGQSESVRDVQFSIRDYFTFASTFENGNVQLWDIRRPDRCERMFTAHNGPVFCCDWHPEDRGWLATGGRDKMVKVWDMTTHRAKEMHCVQTIASVARVKWRPECRHHLATCSMMVDHNIYVWDVRRPFVPAAMFEEHRDVTTGIAWRHPHDPSFLLSGSKDSSLCQHLFRDASQPVERANPEGLCYGLFGDLAFAAKESLVAAESGRKPYTGDRRHPIFFKRKLDPAEPFAGLASSALSVFETEPGGGGMRWFVDTAERYALAGRPLAELCDHNAKVARELGRNQVAQTWTMLRIIYCSPGLVPTANLNHSVGKGGSCGLPLMNSFNLKDMAPGLGSETRLDRSKGDARSDTVLLDSSATLITNEDNEETEGSDVPADYLLGDVEGEEDELYLLDPEHAHPEDPECVLPQEAFPLRHEIVDTPPGPEHLQDKADSPHVSGSEADVASLAPVDSSFSLLSVSHALYDSRLPPDFFGVLVRDMLHFYAEQGDVQMAVSVLIVLGERVRKDIDEQTQEHWYTSYIDLLQRFRLWNVSNEVVKLSTSRAVSCLNQASTTLHVNCSHCKRPMSSRGWVCDRCHRCASMCAVCHHVVKGLFVWCQGCSHGGHLQHIMKWLEGSSHCPAGCGHLCEYS	~2	71			
MIOS (Meiosis Regulator For Oocyte Development) (natural protein, human (endogenous in HEK293T), UniProt Q9NXC5 1-875, looked up, MIOS (Meiosis Regulator For Oocyte Development), subunit of GATOR2, human, endogenous; also called GATOR2 subunit MIOS; source: endogenous, HEK (Lenti-X 293T) spCas9+ WDR59-NGFRETD-nLAP clone D5 lysate) MSGTKPDILWAPHHVDRFVVCDSELSLYHVESTVNSELKAGSLRLSEDSAATLLSINSDTPYMKCVAWYLNYDPECLLAVGQANGRVVLTSLGQDHNSKFKDLIGKEFVPKHARQCNTLAWNPLDSNWLAAGLDKHRADFSVLIWDICSKYTPDIVPMEKVKLSAGETETTLLVTKPLYELGQNDACLSLCWLPRDQKLLLAGMHRNLAIFDLRNTSQKMFVNTKAVQGVTVDPYFHDRVASFYEGQVAIWDLRKFEKPVLTLTEQPKPLTKVAWCPTRTGLLATLTRDSNIIRLYDMQHTPTPIGDETEPTIIERSVQPCDNYIASFAWHPTSQNRMIVVTPNRTMSDFTVFERISLAWSPITSLMWACGRHLYECTEEENDNSLEKDIATKMRLRALSRYGLDTEQVWRNHILAGNEDPQLKSLWYTLHFMKQYTEDMDQKSPGNKGSLVYAGIKSIVKSSLGMVESSRHNWSGLDKQSDIQNLNEERILALQLCGWIKKGTDVDVGPFLNSLVQEGEWERAAAVALFNLDIRRAIQILNEGASSEKGDLNLNVVAMALSGYTDEKNSLWREMCSTLRLQLNNPYLCVMFAFLTSETGSYDGVLYENKVAVRDRVAFACKFLSDTQLNRYIEKLTNEMKEAGNLEGILLTGLTKDGVDLMESYVDRTGDVQTASYCMLQGSPLDVLKDERVQYWIENYRNLLDAWRFWHKRAEFDIHRSKLDPSSKPLAQVFVSCNFCGKSISYSCSAVPHQGRGFSQYGVSGSPTKSKVTSCPGCRKPLPRCALCLINMGTPVSSCPGGTKSDEKVDLSKDKKLAQFNNWFTWCHNCRHGGHAGHMLSWFRDHAECPVSACTCKCMQLDTTGNLVPAETVQP	~2	85			
